Sequences and labels used below:
B3: AbrB from B. subtilis 168, full-length, His6-tagged (natural protein, UniProt P08874 1-96, looked up)
chain: MFMKSTGIVRKVDELGRVVIPIELRRTLGIAEKDALEIYVDDEKIILKKYKPNMTCQVTGEVSDDNLKLAGGKLVLSKEGAEQIISEIQNQLQNLK

Values joined by “and” are separate entries in the source; they are usually repeats but may differ in a detail not shown here. Equal entries are not always repeated. Where two headings read alike, the source gives them in different places.

Data set [1] has as its target AbrB from B. amyloliquefaciens FZB45, full-length, His6-tagged (B. amyloliquefaciens FZB45). The experiment in a line: SEC. For orientation: Size exclusion chromatography separates by hydrodynamic size, large species first.
The target of another data set is full-length AbrB. The experiment in a line: SPR. A general note: SPR reads the build-up and loss of mass on a sensor chip optically.
The data set “SEC” concerns the molecule itself. The experiment in a line: SEC.
The target of data set [2] is AbrB from B. amyloliquefaciens FZB45, full-length, His6-tagged (B. amyloliquefaciens FZB45). In words: native gel or EMSA. On the technique in general: A gel shift assay detects complexes by their altered migration in electrophoresis.
The target is the same in data set [3]. The experiment in a line: SPR.
Data set [4] shares this target. The experiment in a line: SPR. This is another data set of the same source.
Data set [5] has the same target. The experiment in a line: SPR. The source holds these as a separate data set.
The data set “SAXS” deals with the molecule itself. In words: SAXS.
Data set [6] deals with B3. In words: native gel or EMSA.
For data set [7], the target named is B3. The experiment in a line: SPR.
Data set [8] concerns the target T1, Truncated AbrB, N-terminal DNA-binding domain (AbrBN) from B. subtilis 168, His6-tagged (B. subtilis 168).
T1 sequence (P08874 whole entry, looked up): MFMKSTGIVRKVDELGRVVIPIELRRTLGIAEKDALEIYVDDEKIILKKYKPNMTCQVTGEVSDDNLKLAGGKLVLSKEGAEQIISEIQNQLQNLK
In words: SPR.

Regarding “AbrB from B. amyloliquefaciens FZB45, full-length, His6-tagged (natural protein)”, the stoichiometry N – broadly, a count of units in the complex or per binding partner – in [1] came out at 4.
In the case of AbbA, in the data set with full-length AbrB, the ka1 (two-state reaction model, first reaction) is 132000 M⁻¹ s⁻¹ and 158000 M⁻¹ s⁻¹; the kd1 (two-state reaction model, first reaction) was 0.0955 s⁻¹ and 0.157 s⁻¹.

B1: AbbA from B. amyloliquefaciens FZB45 as run on analytical FPLC (natural protein, UniProt A0A9P1JGI2 1-63, looked up)
chain: MSLIGERFTEEEQKLLLNILINHEYAIELLTSEINDIEAGSKSVDGTTYKKLVTLYDRFRNEN
As to B1, in “SEC”, the “stoichiometry N” value worked out at 2. Further, in data set [2], the stoichiometry N (AbbA dimers per AbrB tetramer) turned out to be 2. In addition, the Kd (usually the free concentration of one partner at which half of the binding sites on the other are occupied at equilibrium, for simple one-to-one binding) was 1140 nM and 1240 nM in [3]; 31.4 nM in [4]; 68.9 nM in data set [5]. The molecule also had a KD1 (two-state reaction model, first reaction) in data set [5] of 791 nM.

B2: Full-length AbrB as measured by SAXS (natural protein)
chain: MKSTGIVRKVDELGRVVIPIELRRTLGIAEKDALEIYVDDEKIILKKYKPNMTCQVTGEVSDDNLKLAGGKLVLSKEGAEQIISEIQNQLQNLK
Turning to B2, the “stoichiometry N” value in the data set “SAXS” is 4.
For the molecule B3, in the data set “SEC”, the “stoichiometry N” value is 4.

B4: AbrB antirepressor AbbA from B. subtilis 168, His6-tagged (natural protein, UniProt O31697 1-65, looked up)
chain: MRMSLIGERFTEEEQKLLLNILINHEYAIELLSSEINDIETGTKNVDGTTYKKLVTLYDRFRFEN
For B4, the “stoichiometry N” value in [6] was ~2 AbbA dimers per AbrB tetramer. The Kd was determined as 448 nM in data set [7] and 3700 nM in data set [8].

B5: AbbA from B. subtilis 168 as run on analytical FPLC (natural protein, UniProt O31697 1-65, looked up)
chain: MRMSLIGERFTEEEQKLLLNILINHEYAIELLSSEINDIETGTKNVDGTTYKKLVTLYDRFRFEN
For B5, in “SEC”, the “stoichiometry N” value worked out at 2.

The values are drawn from doi:10.1101/2024.08.12.607668 (bioRxiv, 2024).
